For this assay, the target named is T1, 重组人IL-10蛋白 (human, UniProt P22301 19-178).
T1 construct: The construct used in the Biacore and ELISA assays is only called recombinant human IL-10 protein; also called 人白介素-10; 重组表达的人白介素-10
Put plainly: SPR, Biacore 3000; antibody immobilised on CM5 chip, recombinant human IL-10 at 20, 12.3, 4.1, 1.37 and 0.46 nM. In general terms: In SPR one partner is held on a chip, and binding of the other changes the refractive index at the surface.

Experimental findings from patent CN114349858A (YOUMALI WUHAN BIOTECHNOLOGY CO LTD, dated 2022) are described below.

As a reminder, the Kd is the concentration at which binding is half-saturated.

T1 sequence (P22301 19-178 limits assumed): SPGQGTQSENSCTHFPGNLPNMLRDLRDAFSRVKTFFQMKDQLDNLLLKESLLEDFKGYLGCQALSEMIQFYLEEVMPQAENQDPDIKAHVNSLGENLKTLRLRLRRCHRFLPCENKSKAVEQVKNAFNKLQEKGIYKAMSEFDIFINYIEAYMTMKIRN

B1: 抗人IL-10兔单克隆抗体B (antibody, V domains shown)
VH: QSLEESGGDLVKPGASLTLTCTASGFSFSGSYGICWVRQAPGKGLEWIACIVTSSGTTYYASWAKGRFTISKTSSTTVTLQMTSLTAADTATYFCARDLLAYYTGNLWGPGTLVTVSS
VL: ALVMTQTPASVEAAVGGTVTINCQASQSISNELSWYQQKPGQRPELLIYGASRLESGVPSRFSGSGSGTEFTLTISDLECDDAATYYCQSAYYSSSVDIYNTFGGGTEVVVKG
notes: Used biotin-labelled as the detection antibody in the sandwich ELISA; also called B抗体; 兔抗人IL-10单克隆抗体B
For B1, the Kd was 9.68 pM.
